Measurements reported in US10508147B2, “Anti-nodal antibodies and methods of using same” (ANN AND ROBERT H. LURIE CHILDREN'S HOSPITAL OF CHICAGO, priority 2014, dated 2019).

Columns and labels:
[1] = tested on: C8161 metastatic melanoma cells; assay: C8161 lung colonization (metastasis) model in Nude mice; assay type: in vivo; settings: for lung colonization: IP 3D1 vs IgG control
Experimental: Lung tumor burden was determined as the mean percentage of lung occupied by C8161 melanoma cell colonies calculated from at least 5 different lung sections per individual mouse (See FIG. 26). Experimental Protocol: 250,000 C8161 metastatic melanoma cells were injected i. v. in Nude mice and lung colonization established. Following colonization, animals received by i.p. delivery either 3D1 monoclonal anti-Nodal antibody (100 μg/injection) or control IgG over the next 10 days, every other day (5 total injections).
To evaluate the in vivo effects of 3D1 mAb, a metastatic melanoma lung metastasis model was established by injecting 250,000 C8161 cells intravenously in Nude mice. After 4 days during which cells were allowed to colonize the lungs, mice were separated into treatment and control groups. The treatment group received a total of 500 μg of 3D1 mAb versus 500 μg of irrelevant isotype IgG in the control group administered over 10 days (alternate day intraperitoneal injection (IP) of 100 μg of either 3D1 mAb or IgG). At the end of the treatment period, mice were sacrificed and lungs harvested and processed for histologic evaluation of lung tumor burden and immunohistochemistry. Lung tumor burden was determined by evaluating the mean percentage of lung tissue occupied by C8161 in at least 4 separate fields at low power (10× objective) in lungs from at least 4 separate mice for each group and performed by 2 different observers. A final mean±SEM was calculated from the separate means determined by the individual observers.
Four micron thick, formalin fixed, paraffin embedded tissue sections were prepared and immunohistochemistry was carried out on a Dako Plus autostainer (DAKO, Inc, Carpenteria, Calif.). Following antigen retrieval and blocking steps, sections were incubated in primary antibody for 60 mins, followed by appropriate biotinylated secondary antibody (Biocare Medical, Conrad, Calif.), and then streptavidin-horseradish peroxidase (Thermo Scientific Lab Vision). Color was developed with 3,3′-diaminobenzidine substrate (Thermo Scientific Lab Vision) and sections were counterstained with hematoxylin (Biocare Medical, LLC). As a negative control, adjacent serial sections were incubated with species appropriate irrelevant IgG (Jackson ImmunoResearch Labs) at the same concentration as primary antibodies. Similar to the lung tumor burden evaluation described above, mean percentage of positive staining±SEM was determined by 2 different observers, each calculating the ratio of positive cells/total number of cells×100 for 4 separate high power fields (63× objective) from at least 2 different mice per group.

[2] = target: T1, recombinant Nodal (Homo sapiens, UniProt Q96S42); assay: Sandwich ELISA to detect Nodal with 3D1 as capture antibody; set-up: E. coli derived His238 Leu347, with an N-terminal Met; purchased R&D Systems; settings: rabbit monoclonal anti-Nodal for detection
T1 sequence (Q96S42 238-347): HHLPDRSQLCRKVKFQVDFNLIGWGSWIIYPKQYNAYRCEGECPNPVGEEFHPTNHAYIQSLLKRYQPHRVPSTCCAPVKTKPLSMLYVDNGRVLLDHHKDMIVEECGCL
Excerpt: A typical calibration curve was obtained using a sandwich ELISA assay developed to detect Nodal (detection limit 50 pg/well) (See FIG. 22). The assay used monoclonal anti-Nodal antibody (designated 3D1) to coat an ELISA dish to capture rNodal (recombinant Nodal) from solutions with different concentrations of rNodal and a second, rabbit monoclonal anti-Nodal antibody to detect the captured rNodal. The resulting captured rNodal-antibody complex was then detected with an anti-rabbit antibody conjugated to horseradish peroxidase and a QuantaRed enhanced chemifluorescent horseradish peroxidase substrate.
By epitope mapping of commercially available Nodal antibodies and 3D1 mAb, the latter was chosen as the capture antibody for coating ELISA dishes, while a rabbit monoclonal anti-Nodal (Abcam) served for detecting the bound Nodal. The immune complex was subsequently quantified using a horseradish peroxidase-conjugated anti-rabbit antibody in conjunction with QuantaRed enhanced chemifluorescent horseradish peroxidase substrate (ThermoFisher). The established sandwich ELISA assay detects Nodal as a recombinant protein in conditioned media from human embryonic stem cells and in biological fluids with a detection limit (calculated using recombinant Nodal) of […]. Human serum samples from breast cancer patients were purchased from BioOptions (Brea, Calif.).

detection limit for Nodal [2]: 50 pg/well
detection limit for Nodal ([2]; listed as 3D1 mAb): 75 pg/well
B1: 3D1: mouse monoclonal anti-Nodal antibody raised against hNodal(44-67); light chain SEQ ID NO:1, heavy chains SEQ ID NO:2 and 3 (protein)
light: DIKMTQSPASLSASVGETVTITCRASGNIHNYLAWYQQKQGKSPQLLVYNAKTLADGVPSRFSGSGSGTQYSLKINSLQPEDFGSYYCQHFWSTPHVRCWDQAGTETEAW
heavy 1: VKLVESGGGLVKPGGSLKLSCAASGFTFSSYAMSWVRQTPEKRLEWVASISSGGCTYYPDSVKGRFTISRDNARNILYLQMSSLRSEDTAMYYCARGSMITADGNSLLLCYGLLGSRNLXHR
heavy 2: VKLVESGGGLVQPGGSMKLSCVASGFTFRNYWMSWVRQSPEKGLEWVAEIRLKSDNYAARYAESVKGKFTISRDDSKSRLYLQMNSLRAEDTGIYYCTGIRRFAYWGQGTL
modifications: not fully specified; (120)..(120) Xaa can be any naturally occurring amino acid
mean percentage (±SEM) of cells staining for p27 in lung colonies ([1]; IHC, N=6): 39.5%±17%
mean percentage (±SEM) of cells with nuclear localization of P-Smad2 in lung colonies ([1]; IHC, N=6): 39±8.9%
percentage (+/−SEM) of cells staining for Cyclin B1 in lung colonies ([1]; IHC, N=6): 25.9%±9.4%
lung tumor burden: mean percentage (±SEM) of lung tissue occupied by C8161 colonies ([1]; IP 100 μg alternate days over 10 days, N=8): 25.8%±4.6%
lung colonization [1]: reduced lung colonization
lung colonization ([1]; listed as 3D1 mAb): significantly reduced
